Results as given in the domain aggregation screens of Martell et al. (2025).

experiment: soluble fraction after stress (log2 fold change); higher = more stays soluble; pooled small domains, quantitative proteomics; conditions: stress: pH 4
Method in brief: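 With high-throughput quantitative proteomics, pooled custom libraries of small protein domains were measured after pH 4 stress. Each domain's soluble amount after the stress gives a fold change taken as aggregation propensity. Higher log2 values mean more of the domain stayed soluble.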

Sequence | soluble fraction (log2)
HMGRWQPSTSAKQHGESALLLERLLHLERLTVSEAFHVLTINHRLNLSLPEYRSLLAVVQLPK | -1.31
HMRWAAIMGREVAAHSTPESLVEGKLHIRTDTTAWATQLRLMSADIVRRLNEVLGEGTVLEVDVRG | -1.12
HMDKQEKIHKKKIIILEALKRLLQNDVYSRITVQAVADEAGFSKGGLLHYFPTKEEMYIEFMEY | 0.092
HMGKHYLLKDDNGTITIYKILEDGTQEVYEKTEISTTYLPQTDNIGIKQGIRVNGDEALNELIENF | -0.821
HMPVAPTYALTVKTDPPSANVRLLNSPTPYQPGVRLPSGNYDIEVTQSGYATRKESVRIADRDVALNIAL | 0.0432
HMRAPIGFRISNRRKSLKISQVALARLVGISPSYLNLIENNKRDVGGALLQRVALHLNIDIDDL | -0.219
HMPEVYSFEVNEGAAGKRLDIFLSGEIEGLTRSFIQKLISEGMATVNQEPPRASYRVKTRDLVELQIPDPE | -0.309
HMDTPMQEAVLQRLRDKVAQAAAGSKLPTVRQLIADYGVGQHVIQAALEKLRTEGLITSHVGKGTFVG | 0.142
HMNAQLTTQEAADLLNVSRPHLVKLLEDGELPFLRTGKHRRVRLADLLQFKNAREQASVQAMDELSRQAQ | -0.177
HMFTYDLSERELTIIELVAKGLNNKELADTLFLSEGTIRNYLSTLLNKLDLRDRTQLAIFYYQHL | -2.93
HMLEINTIIGNNLKKIRQEKKLTLDELAGITGVSKGMLSQIEKGTTNPTINTIWKISNGLNVPYTYLLEDD | -0.0827
HMKISDLPAAQVYREIVHAWPKAAAYADLAPINNGGMQRWRDVVHEWVLRGYNPANLRGMLEWYKAGIPTR | -0.132
HMEQVVFNGTGRRKSSIARVRIMSGKGNITVNGKALDEYFGEETLKVIVRQPLTVTDTLDKYDVIATVK | -0.0364
HMVVGYRYVTNVANAVNFRQKPSASSTIITTIPYGTRIGYVEDANSEYARVKYDNMYGYVAKFYLSNYSPP | 0.276
HMAQVRSTVERRENGTYTVELNLNDDVDNVMRLQLMVATKEMAEDLAQRFQKNPEQVYSQLVTALYG | -0.719
HMRTAELEVWDDDELNDVVKLIQNNHNINTLKLRFQENVSFSGLSLIAAVLTKQSIILEIEY | -1.32
HMDGVSLLFKLMETLPEQQKTILHLRDVEQLEFAEIAKITNTSQANVRVALSRARKKIKDLLLKQY | -1.31
HMNTLTKEDIQKAIDVIPIDFKSVVILNLVEGFSYKETAEILEIPIGTVMSRLHRGRKILQKLLWEYSSSK | -0.557
HMNSFKIYPNPSSREVVRFNQAQDVKVYDTLGKLILSAKNTSAIDTKSFNTGIYFIKTANGLTKKLIV | -0.0877
HMNSTSGIAGVGYWINQYRKKKGMSPVDKKSPLVRRVYDWVQEQYDEGRITIISDAELTRQTELAMEA | 0.0383
HMDLIEVLAQDTIKKIYNTYVAYKNKVDVFYVAFSGGKDSIVTLDLVQRTLPHNEFKVLFGDTGM | -0.48
HMGQKDYKTRLQEYFAKQGLKVNYEDTSHGPDHNKNFSTDVFLDGKIIGSGIGKSKKSSQQSAAKDALNIL | ≥ 0.43
HMPVRIYEISKKLGLENKEVLATAKSLGIAAAKVPSSSLDKITAEYLEEEILKSHPEVAARLK | ≥ 0.43
HMGTIRAPMPGTILKINVVDGDSVTKGDVLLILESMKMENSITSPKTGSVTSVYVSEGDPVQHGETLIDL | -1.22
HMTQEAMRSLRKSLQNLSSRQQVIFMLRHYEGLALKEIAEHLGLETGTVKAHLHRAVTQLRKDLVE | -0.112
HMSIPVLKDGTYESWGNEKVYKVGDRVMVGSNGYVAKWWNQDETPEKAIINPNDSPWRPMTESEIMEVLK | -0.113

Sequence | soluble fraction (log2)
HMPDITAAVARTLQALRADRGWSLDQLAARSGVSKGVLVALEQGRSNPNLATLARIGDAFGVPVTLLVDL | -0.196
HMEIETPEIRAIHDLLELLANKAKKPEQEQFVQAHPEVQWAKVEANKNGTFAVGKVKAYLKTLQA | -0.568
HMNIKYDFPTNSPLEMMRNLFDSNSQIINDLKDGFAMANSLNEQGLANFFAERIDKHQFWSWQLSASL | 0.177
HMVSVEINTVERDETFRKMFTSGWKPENRIQALAVEQAKKNGLGRMSEVAGLASFRGIWKQATEQVALEA | -0.0443
HMDQDIILHKVQPGDTLSKILLHYHSHQDRNKLQGLIAESMTANPFIKNPDLIYPGQLIQVPVPA | 0.124
HMNKEHINLDSSKFLSLLNKTKISMSNDETRHYLNGIYIHPTVSNKSSYLTGVATDSHRLSSSSIPVD | -0.311
HMTISDEAMQAGRDAFIQALVAMGAEKNADAMASIEKALSADPGNKEYLATRDLIKKSMGMKK | 0.138
HMSVTIENQINTYFQTRDKISRDELVALIKKDFANWTDNTINIYVSSLQKRGIIHSLSRGMYALGN | 0.22
HMQYQIITENGKQYYLYTVQKSEGFYSIGKRFEITNDEIIKANPEAALGLKLGQVLKIPVYK | -0.131
HMSLPALALRQADSLAFKQVIYHDRVVPFNTLARDFVLKLTGKPSYGGMTPEQVVGGWLLRPEVWQNEPM | 0.00403
HMQLPFTPREHEITQLLSRGLSNRQIAEALSLSVRTVEGHIYQASTKLGISSRSELAVLVGQFA | -0.967
HMKGKWKPIILWQLSKAPQSLSGLRHSIAGISQKMLIQHLNELIHFGFVVRTTFEGYPLKVEYDLTDRGR | -0.251
HMSQRITYTEFVQMVKDDKVEKVEVGANQYNITPKSDDKTLVKMTYYTGFIKDENLLDLLNKHKVEIDGYI | 0.169
HMQLFKFKNAMMELAKNKNITLDTAEKAIGLEAGFTELVARGVKELALSDVIKISKYFNTTMDSVLD | -0.995
HMRMTRQRKVILEELGKVYTHPTADEIYTMVKEKLPNISLGTVYRNLDLLAENNQVLKLETAGNIRRYD | -0.375
HMNASITVPDVRNLTVKQASEQLLASGFTPIPYAATKDGVGNDIVYAQDPPPSVLARSGDQITITYNPA | 0.198
HMAPDGIEDKEGWLKVLPMITNLSIQMQNLQARGMDYEHIRNLLHETLLRYDDRIDSNLFIPNV | -0.198
HMKDYKSSLQERVQAVGGGQLIYRVNREEGPDHSKTFYMDLFLGDRLIGTGSGRNKKQAEQQAAKEAIERG | 0.0469
HMEATEFYLEDLTGQMYNDVVNDEKYAGKIVFEKEEVQSDGEEAIGQILNQRPAGNMNVRIGTTVTLVVNA | -0.201
HMTPKVAVPSFVGWKFEDVERQLGTMGLIRGKVDNHPSEEYSEGRVIWQSVLGEVEKGKVIDFWVSTGPE | -0.776
HMSTLSIHIPDKFAGQRLDQALAELYSQFSRSRLQQWLNDGELLVDGKSVKANKKVLGGEFIQILK | -0.00612
HMLKTADAIASVLLTRIQAGEFSAGRLPAERALSEAFSTTRITLREALGKLEAQGMIYRELRRGWFIA | -1.3
HMEQINVTIQTEKGRIDKVLSEHLPNHSRSQIQQWLKEKHVTVNGETVRANYKVTAGDEIVVTIPEPEV | -0.18
HMQTFNADDIEPIIKEILQENPKAISDFLTGNENVVKFLLGQVMKNTKGKANPKVIEELLINQLRELNN | -0.663
HMAARLMRALIPYAQGGLLAKLHEDGQVLSEEYTGEGIEVKALADEQLFGRLTVQLGEQAVSWQD | -0.205
HMSAPEGWMNRGDLRDNFRIQYPVTDRIIASYRESHPEWFGTYLSKTSKSLEYFHPDLVAKVREAAN | -0.145

Sequence | soluble fraction (log2)
HMSAEVMLRRLIDENDPSSENARYILAVMLERKKILAPVDVKNEKKSKMLFYEHQKTGEAFIVRDP | -0.17
HMTKNEFLASFQNELQKRHIPDWEDVVSEYEQHFALKQADGFSEEEIAAKLGAPAELAAQFEA | -0.0811
HMFKMRVNGKEVIGMAITAKPQANPIDVADEIKKFVIDANTKLPSTMKLEVLYDATGIFRASISEVIS | -0.86
HMGGLSAEQKNGIQSVLKNFDPKNLTSADAKSITSEFKKLGVQPGKDLETTMAASGFDAKEVGRLAF | 0.177
HMDLIFQKGDLVFSTEHNQRGIFYEYLEQGQAKISIEKQFFVVAARRLQLLTKREVLYPAGYDLDQLFV | -1.05
HMNMNDIKFGKYLKRVRKKYNFSKEYVANILKVKESLVSDWESGRLTLNDEYMEKLSLFYGVNLYKK | -0.123
HMVEMIGLQMVGKSGIASTVLRPSGKVRIDGVVYDAVSEDGFIEKGQAVKVLRYETGQVYVEKL | 0.0132
HMHANAALTPRQRLRLAQKIVDEEWTVAAAADYFRVSWPTAAKWARRYVELGEAGMADRSSRP | -0.641
HMKKAMIISTKRGTPAAELDKIIREFEAKGLSVTMIRGTDYNVFGLVGDTTVIDEKQVRANPYVENVQRV | -0.325
HMYRPLYQQVYDFLVKQIAAGEWGPGESLPSEQALAGRLNVSQGTVRKALDALAADSLIDRRQGKGTYVAE | 0.32
HMEDLDKIISAYLDENPQIVSDYGKGNKKAVNSAIGFVMKSTGGKYSSSDIVDAVRSMIVSISV | -0.254
HMKDANIQIGKRLREARLNMNLEKSEIADVLGVTVEHYRKLEAGVMGISVDKVLTLYHKYGIDPTYLITG | -0.712
HMTLSDIGHAVRTRRTELGLSQVQLARLSGLSRQTLVGLENGTLNDLGINRVAQLLAVLGLDAP | -0.203
HMNSYKGELLVDDKNIRLDLYLFNQFNFFSRTKIKNYILKGNVLVNNNKTSPSYILKGSEKIYYDFSVS | -0.251
HMGTLSLLVQKLMAVGLEGAKASEIVERFDRERIERQINALPSRKIKSSRTGFLIRAIELDIPVE | -1.31
HMTIGLLISKARTNSGLTQAELATRAGTSQAAIARYESDRVSPSVSTLERVLRAAGEELVISSS | -0.0184
HMVRSKLEIVPVPEDAVVKIAGLKRLTYQAYQNEDVPYMVYKNGYEAQSGTVFMDTDKTLTVTLEESP | 0.151
HMAGTAMRATTAVNVRSGAGTNYSRIGLLQAGEQIQALSSKNGWTQVSYKGRTGYVASAYLASL | 0.402
HMSPDTREAILAAARTAFARDGYQTSLRGIARDAGVDPALVHHYFPDRATLFAKAVIESTAG | -0.047
HMQNYNLTQQEKKVLQLLVSGKSYKMIAAELNVAFDTVKSHITNIYSKLHVHSGTEAVSVAIRDKI | 0.199
HMLDTELEANLRSQRDQKLVEELDPIVTNPLRWAELTSDKQTEWTQYRTDLLNVPQQSGFPTNVTWPEKP | -0.401
HMSVIETLLSDREREVLTHLVNGYDAKRIAEITGISTLTVRKHIANIYTKLHVNSKAQVISMAHKNKWF | -0.773
HMAFDYETYQLTSREFSIIELVADGRSNREIAEALYLGEGTVRNYLSSILEKLELRDRTQLAVFFYQHL | -2.34
HMRNQIRAVITPVPNQERYTVEMTIDDDAGNLLTLQMAAPDRQQAAEFAQRFQKHPEALYHAVLSVLL | -0.191
